The test addresses CeHsc70-Δ512 (lidless CeHsc70) (C. elegans), P09446.

CeHsc70-Δ512 (lidless CeHsc70) (C. elegans), P09446, sequence (P09446 1-512, stated change not applied): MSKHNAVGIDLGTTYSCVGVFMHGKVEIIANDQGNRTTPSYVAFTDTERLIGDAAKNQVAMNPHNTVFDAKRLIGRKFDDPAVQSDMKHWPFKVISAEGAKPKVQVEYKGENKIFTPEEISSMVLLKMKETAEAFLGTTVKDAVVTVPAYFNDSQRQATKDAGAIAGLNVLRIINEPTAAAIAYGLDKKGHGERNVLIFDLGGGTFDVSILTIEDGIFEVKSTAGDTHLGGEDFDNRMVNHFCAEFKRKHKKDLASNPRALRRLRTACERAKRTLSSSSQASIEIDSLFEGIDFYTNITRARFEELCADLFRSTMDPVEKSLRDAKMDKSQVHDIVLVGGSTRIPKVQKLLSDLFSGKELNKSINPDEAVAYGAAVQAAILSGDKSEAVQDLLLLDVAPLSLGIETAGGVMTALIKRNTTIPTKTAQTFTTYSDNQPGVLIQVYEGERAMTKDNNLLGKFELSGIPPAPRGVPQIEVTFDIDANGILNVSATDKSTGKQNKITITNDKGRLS

B1: BAG-1 (C. elegans, unlabelled), O44739 1-210 (natural protein)
chain: MKVNVSCSSVQTTIDILEENQGEDESILTLGQLRDRIATDNDVDVETMKLLHRGKFLQGADDVSLSTLNFKENDKIIVMGGKNALVDDAGFKMLMQYEKHNLSNLQKAYDLNLRDVADLERGFLEKPKQVEMGKKLEKKVKYFNEEAERHLETLDGMNIITETTPENQAKRNREKRKTLVNGIQTLLNQNDALLRRLQEYQSVLNGDIPE
Regarding B1, the apparent KD of BAG-1 from titration of the steady-state ATPase activity, standard buffer, 25°C worked out at 6.5 µM.

Source of the values: article PMC3315512.
